Test results from PMC9977783, “Ligand-specific changes in conformational flexibility mediate long-range allostery in the lac repressor” (Nature Communications, 2021).

What was measured:
[1] = target: LacI (Escherichia coli) (UniProt P03023); conditions: cited from earlier work
[2] = target: the molecule itself; test: SEC; purified LacI(1-331) after tag removal, buffer and concentration not given
[3] = target: LacI dimeric (lac repressor, tetramerization domain removed) (Escherichia coli, UniProt P03023 1-331); test: BLI; no IPTG; BLI: PBS with 0.2% BSA, 0.05% Tween-20, pH 8.0, room temperature, LacI 0-40 nM, global 1:1 kinetic fit; HDX/MS: 50 mM MOPS, 200 mM NaCl, 0.5 mM TCEP, pH 7.0, equilibrated at 4 C; conditions: protein: recombinant; 6xHis removed with TEV protease; chain copies: 2; label: 5'-biotin on forward strand; blunt

LacI (from UniProt P03023)
Kd [1]: 80 nM

B1: dimeric LacI (lac repressor, residues 1-331, without the tetramerization domain) (domain or fragment, E. coli, UniProt P03023 1-331, looked up)
chain: MKPVTLYDVAEYAGVSYQTVSRVVNQASHVSAKTREKVEAAMAELNYIPNRVAQQLAGKQSLLIGVATSSLALHAPSQIVAAIKSRADQLGASVVVSMVERSGVEACKAAVHNLLAQRVSGLIINYPLDDQDAIAVEAACTNVPALFLDVSDQTPINSIIFSHEDGTRLGVEHLVALGHQQIALLAGPLSSVSARLRLAGWHKYLTRNQIQPIAEREGDWSAMSGFQQTMQMLNEGIVPTAMLVANDQMALGAMRAITESGLRVGADISVVGYDDTEDSSCYIPPLTTIKQDFRLLGQTSVDRLLQLSQGQAVKGNQLLPVSLVKRKTTLA
notes: E. coli lac repressor (LacI), residues 1-331, tetramerization domain truncated; vector pET9a-6×His-LacI(1-331); His tag removed with TEV protease; also called LacI(1-331); apo-LacI; source: E. coli BL21(AI) ΔlacI-ZYA, purified (Ni-NTA, TEV cleavage, second Ni-NTA flowthrough)
binding result [2]: binds

B2: Osyn (perfectly symmetric synthetic operator) (dsDNA)
DNA 1: AGTAGTCTAGAATTGTGAGCGCTCACAATTCTAGAGTAGT
DNA 2: ACTACTCTAGAATTGTGAGCGCTCACAATTCTAGACTACT
Kd [3]: 1.1 nM

B3: Olac (LacO1 natural operator, BLI) (dsDNA)
DNA 1: AGTAGTGGAATTGTGAGCGGATAACAATTGACATTGTGAGCGGATAACAAGATACTGAGCACATCAGC
DNA 2: GCTGATGTGCTCAGTATCTTGTTATCCGCTCACAATGTCAATTGTTATCCGCTCACAATTCCACTACT
Kd [3]: 9.5 nM
